Source: article PMC7293015 (Nucleic Acids Research, 2020)
Positions count from the first letter of the chain named. Names may count otherwise.

T1: StBax1 mutant R86A/R87A (Sulfolobus tokodaii, UniProt Q970I1 1-481, R86A | R87A)
T1 construct: Expression and purification of the mutants are not described
T1 sequence: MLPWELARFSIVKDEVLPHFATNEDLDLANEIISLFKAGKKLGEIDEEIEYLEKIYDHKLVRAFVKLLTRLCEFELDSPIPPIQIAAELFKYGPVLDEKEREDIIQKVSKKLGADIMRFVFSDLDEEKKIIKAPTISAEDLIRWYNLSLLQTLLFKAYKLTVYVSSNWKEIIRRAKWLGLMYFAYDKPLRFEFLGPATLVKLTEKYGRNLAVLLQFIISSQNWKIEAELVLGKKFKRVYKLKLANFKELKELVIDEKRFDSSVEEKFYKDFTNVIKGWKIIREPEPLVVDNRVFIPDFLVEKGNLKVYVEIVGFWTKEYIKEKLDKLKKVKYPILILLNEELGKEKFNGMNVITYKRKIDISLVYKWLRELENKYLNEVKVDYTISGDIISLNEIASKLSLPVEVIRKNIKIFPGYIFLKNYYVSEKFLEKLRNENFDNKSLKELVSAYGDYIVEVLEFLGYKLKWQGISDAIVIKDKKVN

T2: AfBax1 mutant D133A/E135A (Archaeoglobus fulgidus, UniProt O29890 1-468, D133A | E135A)
T2 construct: Expression and purification of the mutants are not described; also called AfBax1 with substitutions D133A/E135A
T2 sequence: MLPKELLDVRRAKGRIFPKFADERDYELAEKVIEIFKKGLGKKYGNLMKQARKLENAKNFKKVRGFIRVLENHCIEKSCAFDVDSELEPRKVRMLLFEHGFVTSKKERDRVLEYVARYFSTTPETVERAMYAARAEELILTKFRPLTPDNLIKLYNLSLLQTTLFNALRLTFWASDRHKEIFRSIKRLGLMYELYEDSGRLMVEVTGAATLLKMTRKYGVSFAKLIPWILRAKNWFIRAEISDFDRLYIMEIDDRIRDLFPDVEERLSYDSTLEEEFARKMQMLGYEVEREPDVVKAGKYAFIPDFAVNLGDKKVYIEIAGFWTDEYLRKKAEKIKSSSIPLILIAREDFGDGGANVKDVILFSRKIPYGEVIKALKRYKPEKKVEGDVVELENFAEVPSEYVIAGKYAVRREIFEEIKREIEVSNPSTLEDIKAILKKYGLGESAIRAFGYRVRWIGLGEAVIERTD

B1: StXPB mutant E357A/E360A (enzyme, Sulfolobus tokodaii)
chain: MVYLRYFKGLILSDAYAPGLKWSDELKAYSALAFKYRDVRKYFLEKEIEVEENVIDSLPFPLIKDKIELRDYQAEAVKAWLKEKRGIIVLPTGAGKTQVALKIVSIMKVATLIVVPTIDLITQWKERINKYLDFDPGIIGGGEDSLKGITVITYDSAYTRAEELGNKFPLLIFDEVHHLPSEGYSIMAQLFASPYRLGLTATPERDDGKHELYPILVGPIVYRKSVEELAGKYIAKYKIKKLYVSLTNEEKKRYDGLRKKLKDFLSSRGLKLQNLDDFHRLVKLAAKDKEAREALLAWHESLNIAVNSQSKIEKLREILQEYKNEKIIVFTRDTQMAYRISKTFLIPVVTYKTDKDAREAILQKFRDGEYRVIVASTVFDEGVDVPDATLAIVMGGYGTKRQFLQRLGRILRKKDKEALLIEIVTKGTADYRLSRRRRE
notes: Expression and purification of the mutants are not described
B2: His6-AfBax1 (Archaeoglobus fulgidus Bax1) (enzyme)
chain: T2 sequence with A133D, A135E
notes: residues 1-467 are seen in the crystal of the untagged form; Used in ITC as His6-AfBax1; also called wild type AfBax1; source: E. coli Rosetta, from pET-28b, purified in the same way as His6-AfXPB
B3: His6-AfXPB C-terminal half (residues 234-452) (domain or fragment, Archaeoglobus fulgidus, UniProt O29889 234-452, looked up)
chain: LAGKHLAKYTIKRIFVPLAEDERVEYEKREKVYKQFLRARGITLRRAEDFNKIVMASGYDERAYEALRAWEEARRIAFNSKNKIRKLREILERHRKDKIIIFTRHNELVYRISKVFLIPAITHRTSREEREEILEGFRTGRFRAIVSSQVLDEGIDVPDANVGVIMSGSGSAREYIQRLGRILRPSKGKKEAVLYELISRGTGEVNTARRRKNAAKGAA
notes: also called AfXPB-CTD; His6-AfXPB-CTD; source: purified
B4: His6-StBax1 (Sulfolobus tokodaii Bax1) (enzyme, UniProt Q970I1 1-481, looked up)
chain: T1 sequence with A86R, A87R
notes: Homodimer when alone in solution (size-exclusion chromatography); one copy in the heterodimer with StXPB; source: E. coli Rosetta (DE3) pLysS, from pET15b, purified (heat step, ammonium sulfate, HisTrap, gel filtration)
B5: His6-AfXPB (Archaeoglobus fulgidus XPB) (enzyme, UniProt O29889 1-452, looked up)
chain: MQMIAEIYYERGTIVVKGDAHVPHAKFDSRSGTYRALAFRYRDIIEYFESNGIEFVDNAADPIPTPYFDAEISLRDYQEKALERWLVDKRGCIVLPTGSGKTHVAMAAINELSTPTLIVVPTLALAEQWKERLGIFGEEYVGEFSGRIKELKPLTVSTYDSAYVNAEKLGNRFMLLIFDEVHHLPAESYVQIAQMSIAPFRLGLTATFEREDGRHEILKEVVGGKVFELFPDSLAGKHLAKYTIKRIFVPLAEDERVEYEKREKVYKQFLRARGITLRRAEDFNKIVMASGYDERAYEALRAWEEARRIAFNSKNKIRKLREILERHRKDKIIIFTRHNELVYRISKVFLIPAITHRTSREEREEILEGFRTGRFRAIVSSQVLDEGIDVPDANVGVIMSGSGSAREYIQRLGRILRPSKGKKEAVLYELISRGTGEVNTARRRKNAAKGAA
notes: residues 1-445 and 17 residues of the N-terminal His6 tag are seen in the crystal; also called full length AfXPB; source: E. coli Rosetta (DE3) pLysS, purified (heat step, HisTrap, HiTrap SP, Sephacryl S-200); not shown: His6, N-terminal, kept

How the values were obtained:
[1] = target: StBax1 mutant L89A/F90A/P94S/V95S (Sulfolobus tokodaii) (UniProt Q970I1); test: ITC; His6-StXPB (30 uM) injected into His6-StBax1 (3 uM); 16 injections of 2.36 ul; 40 C; 10 mM Tris-Cl pH 7.5, 200 mM NaCl, 5% glycerol, 0.01% sodium azide; single binding site fit; similar procedures for mutants
StBax1 mutant R86A/R87A = target: T1, StBax1 mutant R86A/R87A; test: as above; settings: both partners purified
[2] = target: the molecule itself; test: SEC; S200 size-exclusion chromatography of the proteins alone and mixed; calibrated with Conalbumin (75 kDa), Ovalbumin (44 kDa) and Lactalbumin (14 kDa)
[3] = target: B2; test: ITC; His6-AfXPB (139.5 uM) or His6-AfXPB-CTD (202 uM) injected into His6-AfBax1 (13.3 uM); 16 injections of 2.36 ul; 40 C; 10 mM Tris-Cl pH 7.5, 500 mM NaCl, 5% glycerol, 0.01% sodium azide; single binding site fit; similar procedures for mutants; settings: both partners purified
[4] = target: T2, AfBax1 mutant D133A/E135A; test: as above; settings: both partners purified

| Kd [3] [nM] | stoichiometry N [3] | Molecule | stoichiometry N [2] | further results |
| --- | --- | --- | --- | --- |
| – | – | His6-StXPB (Sulfolobus tokodaii XPB, XPBII) (from UniProt Q970I2 1-439) (enzyme) | – | stoichiometry N [1]: 1 |
| – | – | B1 | – | Kd (StBax1 mutant R86A/R87A): 64.9 nM; stoichiometry N (StBax1 mutant R86A/R87A): 1 |
| – | – | B2 | 2 | – |
| 0.5 | 1 | B3 | – | – |
| – | – | B4 | 2 | – |
| 15.2 | 1 | B5 | – | Kd [4]: 157 nM; stoichiometry N [4]: 1 |
